Experimental findings from patent US20230181756A1 (Novartis, published 2023) are described below.

Substitutions are numbered along the chain they refer to. Some results are limits rather than exact numbers.

Test [1] concerns the target T1, human CCR7 (human, UniProt P32248 25-378).
T1 sequence: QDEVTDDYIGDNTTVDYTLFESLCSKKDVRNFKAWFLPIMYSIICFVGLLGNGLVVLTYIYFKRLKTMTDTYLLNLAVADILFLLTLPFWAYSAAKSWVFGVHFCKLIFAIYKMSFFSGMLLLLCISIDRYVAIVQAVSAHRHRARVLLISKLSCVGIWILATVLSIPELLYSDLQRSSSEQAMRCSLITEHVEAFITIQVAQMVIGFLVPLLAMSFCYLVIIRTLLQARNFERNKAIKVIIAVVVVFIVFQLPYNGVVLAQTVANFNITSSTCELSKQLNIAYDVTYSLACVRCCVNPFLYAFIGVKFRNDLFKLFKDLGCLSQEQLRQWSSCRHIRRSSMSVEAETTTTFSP
Put plainly: cell-based or functional assay.

For test [2], the target named is T1, human CCR7. Put plainly: cell-based or functional assay. This is another data set of the same source.
For a further test, the target named is T2, cynomolgus monkey CCR7 (cynomolgus monkey, UniProt P32248 25-378 (human entry)).
T2 construct: also called Cyno CCR7; NIH3T3.cyno CCR7
T2 sequence: T1 sequence with D174G
Put plainly: FACS titration, cynomolgus CD4+ T cells.

For test [3], the target named is T1, human CCR7. Put plainly: cell-based or functional assay. The source holds these as a separate data set.
The next test addresses T3, rat CCR7 (rat, UniProt P47774 25-378 (mouse entry)).
T3 construct: also called NIH3T3.rat CCR7
T3 chain: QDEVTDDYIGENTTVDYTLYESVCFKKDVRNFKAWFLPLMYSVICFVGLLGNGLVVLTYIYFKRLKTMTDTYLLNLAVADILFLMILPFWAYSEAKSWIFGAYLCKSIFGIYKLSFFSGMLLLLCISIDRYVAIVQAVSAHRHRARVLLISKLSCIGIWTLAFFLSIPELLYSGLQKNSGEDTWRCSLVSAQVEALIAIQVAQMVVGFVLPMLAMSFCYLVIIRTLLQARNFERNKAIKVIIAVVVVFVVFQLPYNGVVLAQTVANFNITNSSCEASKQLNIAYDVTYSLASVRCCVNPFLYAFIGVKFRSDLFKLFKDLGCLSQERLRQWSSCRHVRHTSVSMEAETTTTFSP
Description: FACS titration, Wistar rat CD4+ T cells.

The target in another test is T4, mouse CCR7 (mouse, UniProt P47774 25-378).
T4 construct: also called NIH3T3.mouse CCR7
T4 sequence: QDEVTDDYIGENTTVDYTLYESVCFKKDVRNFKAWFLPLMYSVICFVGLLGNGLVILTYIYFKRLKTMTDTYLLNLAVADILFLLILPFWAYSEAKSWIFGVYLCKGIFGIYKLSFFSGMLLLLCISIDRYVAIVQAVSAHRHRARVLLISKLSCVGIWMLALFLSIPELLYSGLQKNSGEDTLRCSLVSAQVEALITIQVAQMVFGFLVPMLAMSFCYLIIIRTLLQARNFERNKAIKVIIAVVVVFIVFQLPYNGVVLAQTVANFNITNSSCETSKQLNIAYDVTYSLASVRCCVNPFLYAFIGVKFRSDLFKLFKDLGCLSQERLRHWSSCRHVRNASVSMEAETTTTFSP
Description: FACS titration, CD-1 mouse CD4+ T cells.

Test [4] concerns the target T1, human CCR7. Put plainly: FACS titration, human CD4+ T cells from PBMC.
The target in test [5] is T1, human CCR7. Put plainly: FACS titration, human CD4+ T cells (receptor density <2,000).
In test [6] the target is T1, human CCR7. Description: FACS binding on CCR7 expressing cells, against the unconjugated antibody.
For test [7], the target named is T1, human CCR7. Description: cell-based or functional assay. The source holds these as a separate data set.
Test [8] concerns the target T1, human CCR7. Put plainly: cell-based or functional assay. The source holds these as a separate data set.
For test [9], the target named is T1, human CCR7. Description: FACS titration, NIH3T3 cells expressing human CCR7.

B1: Parental 506E15 (antibody, V domains shown)
VH: EVMLVESGGGLVKPGGSLKLSCAASGFTFSSYAMSWIRQTPEKRLEWVATISSGGSFTYYPDSVKGRFTISRDNVKNTLYLQMSSLRSEDTAMYYCARRASTVVGTDFDVWGAGTTVTVSS
VL: DIQMTQSPSSLSASLGERVSLTCRASQDIGSSLNWLQQEPDGTIKRLIYATSSLDSGVPKRFSGSRSGSDYSLTISSLESEDFVVYYCLQYASSPPTFGGGTKLEIK
As to B1, in the test with human CCR7 [1], the “ADCC reporter assay, 506E15 IC50 (nM), ALL-SIL cells (CCR7 receptor # 6,200)” value was found to be 0.008 nM; the “ADCC reporter assay, 506E15 IC50 (nM), CMLT-1 cells (CCR7 receptor # 29,000)” value was determined as 0.011 nM; the “ADCC reporter assay, 506E15 IC50 (nM), DEL cells (CCR7 receptor # 62,000)” value is 0.074 nM; the “ADCC reporter assay, 506E15 IC50 (nM), DND-41 cells (CCR7 receptor # 1,700)” value came to 0.002 nM. In the test with human CCR7 [1], the “ADCC reporter assay, 506E15 IC50 (nM), JVM2 cells (CCR7 receptor # 66,500)” value amounted to 0.046 nM; the “ADCC reporter assay, 506E15 IC50 (nM), Jurkat V158 cells (CCR7 receptor # 3,400)” value was 0.004 nM; the “ADCC reporter assay, 506E15 IC50 (nM), MOTN-1 cells (CCR7 receptor # 64,600)” value came out at 0.077 nM; the “ADCC reporter assay, 506E15 IC50 (nM), PEER cells (CCR7 receptor # 8,700)” value was determined as 0.038 nM. For the same molecule, the “ADCC reporter assay, 506E15 IC50 (nM), SR786 cells (CCR7 receptor # 27,800)” value in the test with human CCR7 [1] stood at 0.011 nM. Besides, in the test with human CCR7 [2], the “pgADC cytotoxic assay, Anti-mFc.MMAF, AMAX (%)” value turned out to be 95%; the “pgADC cytotoxic assay, Anti-mFc.MMAF, IC50” value came to 0.07 nM; the “pgADC cytotoxic assay, Fab-ZAP, AMAX (%)” value is 60%; the “pgADC cytotoxic assay, Fab-ZAP, IC50” value came out at 0.135 nM.

B2: 506E15 non-humanized CysMab (antibody, human IgG1, kappa, V domains shown)
VH: B1 VH
VL: DIQMTQSPSSLSASLGERVSLTCRASQDIGSSLNWLQQEPDGTIKRLIYATSSLDSGVPKRFSGSRSGSDYSLTISSLESEDFVVYYCLQYASSPPTFGGGTKLEIKR
notes: Chimeric human IgG1 kappa with CysMab cysteines and wild type Fc; also called Parental 506E15 hIgG1 CysMab; Non-humanized CysMab antibody 506E15
Regarding B2, the half-maximal effective concentration (EC50) (as a rule, the midpoint of the concentration-response curve) in the test with cynomolgus monkey CCR7 is 6.6 nM; with human CCR7 [4], 4.6 to 9.7 nM. Moreover, in the test with human CCR7 [3], the “ADCC activity; IC50 (nM); reporter assay, JVM2 targets and Jurkat-V158 effectors” value was 0.131 nM. Further, the binding result with rat CCR7 and with mouse CCR7 was “no binding” each time.

B3: Humanized 684E12 hIgG1 DAPA CysMab (antibody, V domains shown)
VH: EVQLVESGGGLVKPGGSLRLSCAASGFTFSNFAMSWVRQAPGKGLEWVSTISTGGTYTYYPDSVKGRFTISRDNAKNSLYLQMNSLRAEDTAVYYCARRGYSGVDKWGQGTTVTVSS
VL: DVVMTQSPLSLPVTLGQPASISCKSGQSLLDSTGKTYLNWFLQRPGQSPRRLIYLVSKLDSGVPDRFSGSGSGTDFTLKISRVEAEDVGVYYCWQGTHFPQTFGGGTKLEIKR
notes: also called Humanized CysMab.DAPA antibody 684E12
On to B3, for which, in the test with human CCR7 [5], the EC50 was about 7 nM.

B4: 674J13.CysMab.DAPA.AURIX2 (antibody, human IgG1, kappa, V domains shown)
VH: DVQLQESGPGLVKPSQTLSLTCTVSGYSITSGYSWHWIRQHPGKGLEWMAHIHSSGSTNYNPSLKSRITISRDTSKNQFSLKLSSVTAADTAVYYCARGGVQAFAYWGQGTLVTVSS
VL: EIVLTQSPATLSASPGERVTMSCSASSSVIYMHWYQQKPGQAPRRWIYDTSKLASGVPARFSGSGSGTDYTLTISSMEPEDAAVYYCQQWSSNPLTFGQGTKLEIKR
modifications: DAR LC 0.03; AURIX2 on engineered cysteines, DAR HC 3.93
notes: also called 674J13.DAPA.AURIX2
As to B4, the “difference of geometric mean fluorescence intensity from the unconjugated antibody” value (shortened to “difference”) with human CCR7 [6] is at most 20%. In addition, in the test with human CCR7 [7], the “ADC activity in cell viability assay; IC50 (nM); DEL cells” value is 0.117 nM and the “ADC activity in cell viability assay; IC50 (nM); KE97 cells” value is 0.0658 nM. In addition, in the test with human CCR7 [8], the “ADC activity in cell viability assay; IC50 (nM); CML-T1 cells (CCR7 receptor levels ~29,000)” value amounted to 3.78 nM, the “ADC activity in cell viability assay; IC50 (nM); DEL cells (CCR7 receptor levels ~100,000)” value came out at 0.242 nM, the “ADC activity in cell viability assay; IC50 (nM); KE97 cells (CCR7 receptor levels ~100,000)” value turned out to be 0.102 nM and the “ADC activity in cell viability assay; IC50 (nM); SR786 cells (CCR7 receptor levels ~28,000)” value is 2.74 nM.

B5: Parental 684E12 (antibody, IgG1, V domains shown)
VH: EVHLVESGGGLVKPGGSLKLSCAASGFTFSNFAMSWVRQTPEKRLEWVATISTGGTYTYYPDSVKGRFTISRDNAKKTLYLQMSSLRSEDTAMYYCTRRGYDGVDKWGQGTTLTVSS
VL: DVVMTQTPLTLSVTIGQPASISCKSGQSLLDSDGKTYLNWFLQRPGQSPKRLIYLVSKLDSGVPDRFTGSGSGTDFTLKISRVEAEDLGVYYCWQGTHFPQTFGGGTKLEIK
B5: in the test with human CCR7 [2], the “pgADC cytotoxic assay, Anti-mFc.MMAF, AMAX (%)” value worked out at 80%; the “pgADC cytotoxic assay, Anti-mFc.MMAF, IC50” value is 0.214 nM; the “pgADC cytotoxic assay, Fab-ZAP, AMAX (%)” value was found to be 33%; the “pgADC cytotoxic assay, Fab-ZAP, IC50” value turned out to be 2.6 nM.

B6: 684E12.SMCC.DM1 (antibody, V domains shown)
VH: B5 VH
VL: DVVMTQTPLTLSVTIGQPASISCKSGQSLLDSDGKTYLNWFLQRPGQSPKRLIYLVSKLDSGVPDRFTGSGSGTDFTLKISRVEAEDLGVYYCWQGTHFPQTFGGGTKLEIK
modifications: SMCC-DM1 on lysines of the antibody, DAR 2.6
notes: also called parental 684E12.SMCC.DM1
As to B6, the “difference” value in the test with human CCR7 [6] is at most 20%.

B7: 506E15.CysMab.DAPA.AURIX2 (antibody, human IgG1, kappa, V domains shown)
VH: EVQLVESGGGLVKPGGSLRLSCAASGFTFSSYAMSWIRQAPGKGLEWVATISSGGSFTYYPDSVKGRFTISRDNAKNSLYLQMNSLRAEDTAVYYCARRASTVVGTDFDVWGQGTTVTVSS
VL: DIQMTQSPSSLSASVGDRVTLTCRASQDIGSSLNWLQQKPGKAIKRLIYATSSLDSGVPSRFSGSRSGTDYTLTISSLQPEDFVVYYCLQYASSPPTFGGGTKLEIKR
modifications: AURIX2 on engineered cysteines, DAR 3.80
notes: also called 506E15.DAPA.AURIX2
Regarding B7, the “difference” value with human CCR7 [6] was at most 20%. In the test with human CCR7 [7], the “ADC activity in cell viability assay; IC50 (nM); DEL cells” value turned out to be 0.0084 nM and the “ADC activity in cell viability assay; IC50 (nM); KE97 cells” value stood at 0.0131 nM.

B8: Parental 121G12 (antibody, V domains shown)
VH: EVQLVESGGGLVKPGGSLKLSCAASGFTFSTYAMSWVRQTPEKRLEWVATISDGGSYSYYPDNVKGRFTISRDNAKNNLYLQMSHLKSEDTAMYYCARRGSRYEEYYVMDYWGQGTSVTVSS
VL: DIVLTQSPATLSVTPGDSVSLSCRASQSISNNLHWYQQKSHESPKLLIKYASQSISGIPSRFSGSGSGTDFTLSINSVETEDFGMYFCQQSNSWLTFGAGTKLGLK
Take B8: in the test with human CCR7 [2], the “pgADC cytotoxic assay, Anti-mFc.MMAF, AMAX (%)” value was 104%; the “pgADC cytotoxic assay, Anti-mFc.MMAF, IC50” value amounted to 0.055 nM; the “pgADC cytotoxic assay, Fab-ZAP, AMAX (%)” value worked out at 43%; the “pgADC cytotoxic assay, Fab-ZAP, IC50” value was 0.064 nM.

B9: 674J13 non-humanized CysMab (antibody, human IgG1, kappa, V domains shown)
VH: DVQLQESGPDLVKPSQSLSLTCTVTGYSITSGYSWHWIRQFPGNKLEWMAHIHSSGSTNYNPSLKSRISIIRDTSKNLFFLQLNSVTTEDTATYYCARGGVQAFAYWGQGTLVTVSA
VL: QIVLTQSPAIMSASPGEKVTMTCSASSSVIYMHWYQQKSGTSPKRWIYDTSKLASGVPARFSGSGSGTSYSLTISSMEAEDAATYYCQQWSSNPLTFGAGTTLELKR
notes: Chimeric human IgG1 kappa with CysMab cysteines and wild type Fc; also called Parental 674J13 hIgG1 CysMab; Non-humanized CysMab antibody 674J13
With B9, the EC50 with human CCR7 [9] was 3.6 nM; in the test with cynomolgus monkey CCR7, 0.45 nM; with human CCR7 [4], 0.39 to 1.4 nM. Besides, the “ADCC activity; IC50 (nM); reporter assay, JVM2 targets and Jurkat-V158 effectors” value in the test with human CCR7 [3] was found to be 1.09 nM. The binding result in the test with rat CCR7 and with mouse CCR7 was “no binding” each time.

B10: Parental 674J13 (antibody, IgG1, V domains shown)
VH: B9 VH
VL: QIVLTQSPAIMSASPGEKVTMTCSASSSVIYMHWYQQKSGTSPKRWIYDTSKLASGVPARFSGSGSGTSYSLTISSMEAEDAATYYCQQWSSNPLTFGAGTTLELK
For B10, in the test with human CCR7 [2], the “pgADC cytotoxic assay, Anti-mFc.MMAF, AMAX (%)” value turned out to be 102%; the “pgADC cytotoxic assay, Anti-mFc.MMAF, IC50” value came to 0.137 nM; the “pgADC cytotoxic assay, Fab-ZAP, AMAX (%)” value turned out to be 31%; the “pgADC cytotoxic assay, Fab-ZAP, IC50” value was 6.12 nM.
